Test results reported in PMC6137974, “FZP determines grain size and sterile lemma fate in rice”.

B1: GCC-box probe (3 repeats) (dsDNA)
DNA 1: CATAAGAGCCGCCACTCATAAGAGCCGCCACTCATAAGAGCCGCCACT
DNA 2: AGTGGCGGCTCTTATGAGTGGCGGCTCTTATGAGTGGCGGCTCTTATG
B2: DRE probe (3 repeats) (dsDNA)
DNA 1: ATACTACCGACATGAGATACTACCGACATGAGATACTACCGACATGAG
DNA 2: CTCATGTCGGTAGTATCTCATGTCGGTAGTATCTCATGTCGGTAGTAT
B3: mDRE probe (3 repeats) (dsDNA)
DNA 1: ATACGTCTTTGACGAGATACGTCTTTGACGAGATACGTCTTTGACGAG
DNA 2: CTCGTCAAAGACGTATCTCGTCAAAGACGTATCTCGTCAAAGACGTAT
B4: mGCC-box probe (3 repeats) (dsDNA)
DNA 1: CATAAGATACTTGACTCATAAGATACTTGACTCATAAGATACTTGACT
DNA 2: AGTCAAGTATCTTATGAGTCAAGTATCTTATGAGTCAAGTATCTTATG

Legend:
[1] = target: T1, FZP (FRIZZY PANICLE) (Oryza sativa, UniProt Q8H3Q1 1-318); experiment: EMSA; 0.5, 1 and 1.5 ug protein; EMSA, 15 ul, 1 ug biotin probe, 0.5-1.5 ug protein, LightShift Chemiluminescent EMSA Kit (Thermo) binding buffer; salt, pH and temperature not stated; details: protein: recombinant; tags: His-SUMO (pET-SUMO); label: 5' biotin; blunt
T1 sequence (Q8H3Q1 whole entry): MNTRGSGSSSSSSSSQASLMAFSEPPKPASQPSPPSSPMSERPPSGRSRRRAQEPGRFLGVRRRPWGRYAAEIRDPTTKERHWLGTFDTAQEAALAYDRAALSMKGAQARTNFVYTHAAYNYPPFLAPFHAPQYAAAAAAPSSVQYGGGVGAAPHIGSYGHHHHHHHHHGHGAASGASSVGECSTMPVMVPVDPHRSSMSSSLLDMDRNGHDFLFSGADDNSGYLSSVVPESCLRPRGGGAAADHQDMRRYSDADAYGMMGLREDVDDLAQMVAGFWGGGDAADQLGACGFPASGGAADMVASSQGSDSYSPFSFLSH

[2] = target: T1, FZP (FRIZZY PANICLE); experiment: EMSA; 1.5 ug protein; EMSA, 15 ul, 1 ug biotin probe, 0.5-1.5 ug protein, LightShift Chemiluminescent EMSA Kit (Thermo) binding buffer; salt, pH and temperature not stated; details: protein: recombinant; tags: His-SUMO (pET-SUMO); label: 5' biotin; blunt

Row | Binder | binding result [1] | binding result [2]
1 | B1 | binds | –
2 | B2 | binds | –
3 | B3 | – | no binding
4 | B4 | – | no binding
